Results on 1 molecule are retold here after article PMC6992781 (Nature Communications, 2020).

In this test the target is full-length RABV G (isolate 8743THA) (Rabies lyssavirus, isolate 8743THA, UniProt B2XY12, strain). Briefly: flow cytometry on cells. The settings on record: one partner purified. (Flow cytometry measures light scatter and fluorescence of single cells or particles in a stream.)

B1: RVC20 (human broadly neutralizing monoclonal antibody, recombinant IgG1/kappa) (antibody, V domains shown)
VH: QVQLQESGPGLVKPSQTLSLTCTVSGGSFSSGSYSWNWIRQHPGKGLEWIGYIYYSGSTYYNPSLKSRVTMSVHTSKNQFSLKLNSITAADTAVYYCARGTYSDFWSGSPLDYWGQGTLVTVSS
VL: DIQMTQSPSSLSASVGDRVTITCRASQGISNYLAWFQQKPGKAPKSLIYAASSLQSGVPSRFSGSGSGTDFTLTINSLQPEDFVTYFCQQYDTYPLTFGGGTKVEIK
Turning to B1, the binding result is listed as “binds”.
